The data set deals with T1, L-selectin LE-His (monomeric, lectin and EGF-like domains) (human, UniProt P14151 39-194).
T1 sequence: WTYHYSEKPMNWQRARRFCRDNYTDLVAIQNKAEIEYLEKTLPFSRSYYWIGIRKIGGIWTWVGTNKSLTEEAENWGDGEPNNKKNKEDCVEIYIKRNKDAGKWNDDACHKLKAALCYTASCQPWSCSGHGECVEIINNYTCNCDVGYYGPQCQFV
The data set is described as follows: SPR (single cycle kinetics); 1 mM CaCl2; protein in cell culture supernatant; abstract gives ~12 nM; SPR: HBS-Ca (20 mM HEPES pH 7.5, 150 mM NaCl, 1 mM CaCl2), Biacore X100, temperature not stated; column: PBS with 0.9 mM CaCl2 and 0.5 mM MgCl2, room temperature. Conditions: protein: recombinant; tags: C-terminal His; label: 5' biotin. A general note: SPR reads the build-up and loss of mass on a sensor chip optically.

B1: LD201mΔ1 (structured_DNA)
DNA: GCCAGTACAAGGTGCTAAACGTAATGGC
What is called Kd is the concentration at which binding is half-saturated. For the molecule B1, the Kd came out at 11.2 ± 0.8 nM.

Values taken from paper PMC5336075, “Single-Step Purification of Monomeric l-Selectin via Aptamer Affinity Chromatography”.
